The values that follow come from publication PMC9672302, “H2A.Z deposition by SWR1C involves multiple ATP-dependent steps” (Nature Communications, 2022).

The test system of data set [1] is SWR1C (SWR1 complex) (Saccharomyces cerevisiae (FLAG-tagged Swr1 strain)). Put plainly: fluorescence polarization. As to conditions: FP: 25 mM HEPES-KOH pH 7.6, 70 mM KCl, 0.2 mM EDTA, 5 mM MgCl2, 1 mM DTT, 0.1 mg/mL BSA, 10 nM nucleosome, 1 mM nucleotide where added, 20 min, room …. Background: Polarisation of emitted light reports the rotation of a fluorescent probe.

Data set [2] addresses T1, SWR1C (Saccharomyces cerevisiae, UniProt Q05471).
T1 construct: gene SWR1; native multi-subunit remodeler complex purified from a yeast strain with FLAG-tagged Swr1, eluted with 3x FLAG peptide; tag kept; with SWR1-complex protein 5; SWR1-complex protein 3; Vacuolar protein sorting-associated protein 71; Actin-like protein ARP6; Vacuolar protein sorting-associated protein 72; SWR1-complex protein 4; SWR1-complex protein 7; Protein AF-9 homolog; Bromodomain-containing factor 1; Actin-related protein 4; Actin; RuvB-like protein 1; RuvB-like protein 2
The data set can be described thus: fluorescence polarization of SWR1C binding to labelled H2A nucleosome with added nucleotide (no constant for the nucleotide). As to conditions: 1 mM ADP, 10 nM 77N4-ATTO 647N nucleosome, 5 mM MgCl2, pH 7.6, room temperature; indirect, nucleotide modulates nucleosome affinity.

Data set [3] has as its target T1, SWR1C. The data set can be described thus: single-molecule FRET of H2A/H2B eviction from immobilised nucleosomes. The settings on record: co-substrates yeast/Xenopus hybrid nucleosome 117N4, H2A.Z/H2B dimer, chaperone Chz1; 0-100 uM ATP; 4 mM MgCl2, pH 7.6, room temperature. It is filed as biochemical.
Data set [4] addresses SWR1C-nucleosome (SWR1C bound to the tethered biotinTEG-117N4-ATTO 647N H2A nucleosome) (S. cerevisiae | not stated (X. laevis H3.1 or H. sapiens H3.2 C110A made) | X. laevis | yeast (endogenous in the FLAG-tagged Swr1 yeast strain)) (UniProt P04911). The data set can be described thus: single-molecule fluorescence colocalisation (TIRF, smFRET set-up); biotinTEG-117N4-ATTO 647N nucleosomes incubated with 25 nM SWR1C and tethered on a streptavidin-coated slide; 50 nM Cy3B-labeled H2A.Z-H2B dimer, 50 nM Chz1, 200 uM ATP, 10 nM 77N0 nucleosome in solution; room temperature; 5 min of acquisition.

The target of data set [5] is H2A.Z nucleosomal product with SWR1C (tethered biotinTEG-117N4-ATTO 647N nucleosome after dimer exchange) (S. cerevisiae | not stated (X. laevis H3.1 or H. sapiens H3.2 C110A made) | X. laevis | yeast (endogenous in the FLAG-tagged Swr1 yeast strain)) (UniProt Q12692). Put plainly: single-molecule fluorescence colocalisation (TIRF, smFRET set-up); tethered biotinTEG-117N4-ATTO 647N, Cy3B-labeled H2A nucleosome with 30 nM SWR1C, 70 nM H2A.Z-H2B dimer, 70 nM Chz1; 0.5 uM ATP; time from the end of eviction (loss of FRET) to the loss of the Cy3B signal, Kaplan-Meier half-life; room temperature.

Data set [6] has the same target. The data set can be described thus: single-molecule fluorescence colocalisation (TIRF, smFRET set-up); as a6 but with 100 uM ATP.
The target of data set [7] is H2A nucleosome (77N4-ATTO 647N nucleosome) (S. cerevisiae | not stated (X. laevis H3.1 or H. sapiens H3.2 C110A made) | X. laevis) (UniProt P04911). Put plainly: fluorescence polarisation; as a1 but with 1 mM ADP; apparent Kd.
For data set [8], the target named is H2A.Z nucleosome (77N4-ATTO 647N nucleosome) (S. cerevisiae | not stated (X. laevis H3.1 or H. sapiens H3.2 C110A made) | X. laevis) (UniProt Q12692). Put plainly: fluorescence polarisation; 0-250 nM SWR1C titrated to 10 nM 77N4-ATTO 647N nucleosome, no nucleotide; 25 mM HEPES-KOH pH 7.6, 70 mM KCl, 0.2 mM EDTA, 5 mM MgCl2, 1 mM DTT, 0.1 mg/mL BSA; 20 min, room temperature; quadratic binding equation, global fit; apparent Kd.

In data set [9] the target is H2A nucleosome (77N4-ATTO 647N nucleosome) (S. cerevisiae | not stated (X. laevis H3.1 or H. sapiens H3.2 C110A made) | X. laevis) (UniProt P04911). The description is as above.
The target is the same in data set [10]. The data set can be described thus: fluorescence polarisation; as a1 but with 1 mM ATP; apparent Kd.
Data set [11] has the same target. The data set can be described thus: fluorescence polarisation; as a1 but with 1 mM AMP-PNP; apparent Kd.

With 77N4 H2A nucleosome (ATTO 647N), the Kd in data set [1] (1 mM ADP) stood at 0.021 µM; in [1] (1 mM AMP-PNP), 0.014 µM; in data set [1] (1 mM ATP), 0.031 µM; in data set [1] (no nucleotide (apo), 5 replicates) it was 0.012 µM.

Molecule 77N4 H2A.Z nucleosome (ATTO 647N) came in with a Kd in [1] (no nucleotide (apo)) of 0.025 µM.

For the molecule `Nc1ncnc2c1ncn2[C@@H]1O[C@H](COP(=O)(O)OP(=O)(O)O)[C@@H](O)[C@H]1O` [ADP], in data set [2], the “fluorescence polarization of SWR1C binding to labelled H2A nucleosome with added” value is reported as “a decrease in binding was also observed with ADP”.

For `Nc1ncnc2c1ncn2[C@@H]1O[C@H](COP(=O)(O)OP(=O)(O)OP(=O)(O)O)[C@@H](O)[C@H]1O` [ATP], the “single-molecule FRET of H2A/H2B eviction from immobilised nucleosomes” value in data set [3] is “Priming is ATP-sensitive, as the duration of the priming phase (tprime) decreased with increasing ATP concentration”.

With “Cy3B-H2A.Z/H2B dimer (from UniProt P02293 5-131) (complex)”, in [4], the mean lifetime of the bound state was 34 s, the percent of nucleosomes bound within 10 s amounted to 50% and the percent of nucleosomes that bound at least one dimer in 5 min turned out to be 89%.

As to “Cy3B-labeled H2A/H2B dimer (from UniProt P02293 5-131) (complex)”, the half-life of release (t release) in data set [5] stood at 3.65 min; in data set [6], 1.6 min.

For the molecule “SWR1C (from UniProt Q05471 1-1514; P38326 1-303; Q12509 1-438; Q03433 1-280; P31376 1-625) (complex)”, the Kd in [7] turned out to be 0.021 µM; in [8], 0.025 µM; in data set [9], 0.012 µM; in data set [10], 0.031 µM; in [11], 0.014 µM.
